Experimental data: patent US20120121596A1 (published 2012)
Changes are numbered by the printed parent chain.

What was measured:
[1] = molecular target: T1, hEGFR-ECD (human, UniProt P00533 25-645); assay: phage solution binding competition ELISA as in Example 1, antigen in solution varied
T1 construct: extracellular domain

[2] = molecular target: T2, BSA (bovine, UniProt P02769); assay: direct phage ELISA, proteins coated at 2 µg/ml, phage-Fab supernatant, OD450;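 further: specificity test of dual-activity clones, with binding assessed across an antigen panel to check whether each recognises only its cognate target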
T2 construct: also called bovine serum albumin

[3] = molecular target: T3, HER2-ECD (human, UniProt P04626 23-652); assay: as above
T3 construct: extracellular domain

[4] = molecular target: T4, HER4-ECD-Fc (human, UniProt Q15303 26-651, limits assumed); assay: as above
T4 construct: extracellular domain
T4 sequence (looked up): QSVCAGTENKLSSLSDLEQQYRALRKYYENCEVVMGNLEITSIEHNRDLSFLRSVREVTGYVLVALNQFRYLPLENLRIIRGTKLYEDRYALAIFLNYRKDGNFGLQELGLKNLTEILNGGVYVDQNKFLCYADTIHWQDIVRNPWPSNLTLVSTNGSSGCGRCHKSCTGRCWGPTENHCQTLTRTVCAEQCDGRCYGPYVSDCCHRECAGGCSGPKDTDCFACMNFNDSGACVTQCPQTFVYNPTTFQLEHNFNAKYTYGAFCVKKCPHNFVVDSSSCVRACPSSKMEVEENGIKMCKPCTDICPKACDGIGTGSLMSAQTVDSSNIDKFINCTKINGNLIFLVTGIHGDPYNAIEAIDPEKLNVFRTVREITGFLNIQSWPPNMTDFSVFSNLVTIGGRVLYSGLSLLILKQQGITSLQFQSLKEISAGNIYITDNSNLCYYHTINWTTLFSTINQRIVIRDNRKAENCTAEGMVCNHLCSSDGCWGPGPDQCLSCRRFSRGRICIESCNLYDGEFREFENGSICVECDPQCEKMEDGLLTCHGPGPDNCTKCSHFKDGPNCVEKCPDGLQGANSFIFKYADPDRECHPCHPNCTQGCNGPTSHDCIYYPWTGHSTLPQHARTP

[5] = molecular target: T5, HER3-ECD-Fc (human, UniProt P21860 20-643, limits assumed); assay: phage solution binding competition ELISA; experiment of paragraph 433 (compared with DL3.1-3.7)
T5 construct: extracellular domain; also called HER3-FC; HER3-IgG

[6] = molecular target: T5, HER3-ECD-Fc; assay: phage solution binding competition ELISA as in Example 1, antigen in solution varied; experiment of paragraph 431 (compared with DL7 and DL11)
[7] = molecular target: T6, Xolair; assay: direct phage ELISA, proteins coated at 2 µg/ml, phage-Fab supernatant, OD450;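 further: specificity test of dual-activity clones, with binding assessed across an antigen panel to check whether each recognises only its cognate target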
T6 construct: not shown: the constant regions

[8] = molecular target: T5, HER3-ECD-Fc; assay: as above
[9] = molecular target: T1, hEGFR-ECD; assay: phage solution binding competition ELISA: hEGFR-ECD in solution varied, unbound phage captured on antigen-coated plate
[10] = molecular target: T7, hEGFR-ECD-Fc (human EGFR extracellular domain fused to an Fc region of human IgG1) (human, UniProt P00533 25-645); assay: phage ELISA of clones from plate selection
T7 construct: extracellular domain; not shown: Fc region of human IgG1

[11] = molecular target: T8, Erbitux; assay: direct phage ELISA, proteins coated at 2 µg/ml, phage-Fab supernatant, OD450;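 further: specificity test of dual-activity clones, with binding assessed across an antigen panel to check whether each recognises only its cognate target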
T8 construct: also called cetuximab; C225; not shown: the constant regions

[12] = molecular target: T1, hEGFR-ECD; assay: as above

T2 sequence (P02769 25-607 limits assumed): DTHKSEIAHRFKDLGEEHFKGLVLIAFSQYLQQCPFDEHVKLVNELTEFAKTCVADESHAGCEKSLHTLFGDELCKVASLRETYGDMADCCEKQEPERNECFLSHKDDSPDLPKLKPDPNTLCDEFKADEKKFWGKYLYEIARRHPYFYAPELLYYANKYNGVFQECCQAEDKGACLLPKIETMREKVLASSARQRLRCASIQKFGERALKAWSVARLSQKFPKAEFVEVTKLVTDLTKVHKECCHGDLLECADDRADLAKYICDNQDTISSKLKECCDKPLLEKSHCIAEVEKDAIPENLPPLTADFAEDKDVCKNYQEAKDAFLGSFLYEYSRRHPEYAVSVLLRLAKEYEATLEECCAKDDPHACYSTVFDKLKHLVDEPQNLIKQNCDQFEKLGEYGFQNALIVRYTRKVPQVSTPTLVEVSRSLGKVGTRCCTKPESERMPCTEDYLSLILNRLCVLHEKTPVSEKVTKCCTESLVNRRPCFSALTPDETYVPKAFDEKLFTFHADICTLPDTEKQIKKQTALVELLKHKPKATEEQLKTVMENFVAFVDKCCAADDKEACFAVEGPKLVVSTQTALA

B1: D1.5-100 (phage-displayed Fab clone) (Fab, V domains shown)
VH: EVQLVESGGGLVQPGGSLRLSCAASGFTFTGNWIHWVRQAPGKGLEWVGEISPSGGYTDYADSVKGRFTISADTSKNTAYLQMNSLRAEDTAVYYCARESRVSYEAAMDYWGQGTLVTVSS
VL: DIQMTQSPSSLSASVGDRVTITCRASQDLATDVAWYQQKPGKAPKLLIYSASFLYSGVPSRFSGSGSGTDFTLTISSLQPEDFATYYCQQSEPEPYTFGQGTKVEIKR
notes: also called DL1.5-100
Q: What does the source list for B1?
A: IC50 [1]: 44 nM; binding result [2]: no binding; binding result [3]: no binding; binding result [4]: no binding; IC50 [5]: 4.6 nM; IC50 [6]: 0.1 nM

B2: D1.5 (phage-displayed Fab clone) (Fab, V domains shown)
VH: B1 VH
VL: B1 VL with L29V, A30S, D32A, E92Y, E94T
Q: Does B2 bind [2]?
A: no binding

Q: Does B2 bind [7]?
A: no binding

Q: Does B2 bind [3]?
A: no binding

Q: Does B2 bind [8]?
A: no binding

Q: Does B2 bind [4]?
A: no binding

Q: What about the IC50 [9] of the same binder?
A: 0.39 nM

B3: D1.5-201 (phage-displayed Fab clone) (Fab, V domains shown)
VH: B1 VH
VL: DIQMTQSPSSLSASVGDRVTITCRASQAVWGGYIAPVAWYQQKPGKAPKLLIYDGSYLYSGVPSRFSGSGSGTDFTLTISSLQPEDFATYYCQQRLPTPYTFGQGTKVEIKR
notes: EGFR/HER2 dual-specific clone from the D1.5 light chain library
Q: Does B3 bind [10]?
A: binds

Q: Does B3 bind [11]?
A: no binding

Q: Does B3 bind [2]?
A: no binding

Q: Does B3 bind [12]?
A: binds

Q: Does B3 bind [3]?
A: binds

Q: Does B3 bind [8]?
A: no binding

Q: Does B3 bind [4]?
A: no binding
